From the supplement of paper PMC9732359
± gives the uncertainty stated by the source.

Assay: protein stability index of a GFP-peptide fusion (yeast GPS) (PSI 1-4); higher = more stable; sorted into four equal gates, so the index is relative within each strain
In short: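 For each peptide, the protein stability index sums the read frequency in every gate after multiplying it by the gate number. Read frequencies came from plasmids that were PCR-amplified from each gate and Illumina-sequenced, with reads assigned to strains by barcodes. The gates were four equal bins of GFP/Cherry fluorescence ratio applied to mid-log yeast in leucine-free medium carrying a pooled library of tiled 17-residue yeast protein peptides fused downstream of GFP on a Cherry-expressing plasmid.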

Sequence | protein stability index (doa10∆) | protein stability index (pdr5∆) | protein stability index (san1∆) | protein stability index (ubr1∆)
IVFVHSRKETSRTATWL [BRR2] | 2.53 ± 0.11 | 2.67 ± 0.12 | 2.57 ± 0.21 | 2.89 ± 0.077
ECLPAEGHDWKAPTKLD [DIS3] | 3.27 ± 0.098 | 3.21 ± 0.082 | 3.35 ± 0.071 | 3.23 ± 0.079
HAMGGREGLIDTAVKTA [RPO21] | 1.24 ± 0.076 | 1.35 ± 0.065 | 1.23 ± 0.15 | 1.17 ± 0.054
NIDETSDEVSRGIPRLS [SMC4] | 3.06 ± 0.2 | – | 2.97 ± 0.22 | –
RVAASFSQEALQYVVER [FAS1] | 1.06 ± 0.091 | 1.19 ± 0.11 | – | 1.14 ± 0.089
IEPQVINYLALNAANYN [ECM29] | 3.37 ± 0.13 | 2.63 ± 0.12 | 2.15 ± 0.24 | 2.33 ± 0.078
TTVSNDLENSPLKTELE [SSN2] | 3.05 ± 0.13 | 3.16 ± 0.096 | 3.16 ± 0.072 | 3.19 ± 0.082
KTRFKGSQFIVVSLKEG [SMC2] | 3.46 ± 0.12 | 3.16 ± 0.08 | 3.35 ± 0.069 | 3.34 ± 0.046
DPTLTTTTSFTTSEATA [RPN4] | 2.85 ± 0.075 | 2.98 ± 0.067 | 2.58 ± 0.057 | 2.92 ± 0.066
APMDFAIVVGWRAIIKA [FAS1] | 2.51 ± 0.086 | 2.66 ± 0.08 | 2.57 ± 0.082 | 2.14 ± 0.062
DSVFSFGPKKENRKKDE [YLR335W/NUP2] | 3.01 ± 0.091 | 2.86 ± 0.078 | 2.9 ± 0.048 | 3.03 ± 0.056
NLSIDEVAVPDRVAKVL [RPO31] | 3.09 ± 0.076 | 3.05 ± 0.073 | 3.11 ± 0.06 | 3.22 ± 0.045
KRTRLESLKNLNESRSQ [SMC3] | 2.53 ± 0.092 | 2.4 ± 0.075 | 2.61 ± 0.071 | 2.82 ± 0.13
HHDGKLWNLNAYRTDVI [PRP8] | 2.94 ± 0.082 | 3.28 ± 0.092 | 3.04 ± 0.074 | 3.07 ± 0.071
TVQYVRFFWKRSTNKKS [UBP6] | 1.65 ± 0.054 | 1.35 ± 0.047 | 1.2 ± 0.15 | 1.12 ± 0.04
LTEQIRELREVIELPLK [RPT4] | 2.69 ± 0.14 | 3.73 ± 0.27 | 3.12 ± 0.17 | 3.06 ± 0.087
KPLFDFGKTGDQKETKK [YOR098C/NUP1] | 3.3 ± 0.12 | 3.6 ± 0.19 | 2.79 ± 0.22 | 3.34 ± 0.082
MKQLKFFKPLDYITEAV [SNU114] | 2.12 ± 0.043 | 2.05 ± 0.052 | 1.86 ± 0.082 | 1.92 ± 0.036
YSRILKSMGRKCFDDIE [YCG1] | 3.16 ± 0.17 | 2.35 ± 0.12 | 2.92 ± 0.21 | 2.16 ± 0.13
SNYAASNSMDRSSSASN [SWI1] | 2.79 ± 0.14 | 2.7 ± 0.089 | 2.88 ± 0.07 | 2.84 ± 0.093
CVNLSLFDARFERKNPH [SRB8] | 3.2 ± 0.089 | 3.16 ± 0.061 | 3.34 ± 0.083 | 3.17 ± 0.053
DAENEWNVEKFKKDFEV [RPC40] | 1.39 ± 0.12 | 1.7 ± 0.21 | 1.85 ± 0.16 | 1.82 ± 0.11
IKCSQSSHLSDNDFIIN [POP5] | 2.96 ± 0.09 | 2.85 ± 0.059 | 2.66 ± 0.059 | 2.55 ± 0.041
IPNIPPNINTWQQVTAL [GAL11] | 2.96 ± 0.14 | 3.15 ± 0.1 | 2.9 ± 0.11 | 2.54 ± 0.12
RKKARTFDSSWNWAKQS [FAS2] | 1.79 ± 0.14 | 1.97 ± 0.12 | 2.32 ± 0.12 | 2.95 ± 0.074
DLASSKEVLAKIVDLLA [RPN5] | 2.85 ± 0.21 | 3.43 ± 0.24 | 2.98 ± 0.091 | 2.97 ± 0.11

Sequence | protein stability index (doa10∆) | protein stability index (pdr5∆) | protein stability index (san1∆) | protein stability index (ubr1∆)
PFKRKMLLVDIIPSRMG [REC8] | 1.81 ± 0.069 | 1.77 ± 0.072 | 2.26 ± 0.11 | 2.15 ± 0.059
AKGFYHTPMVNFESISA [SRB8] | 2.16 ± 0.06 | 1.84 ± 0.05 | 1.52 ± 0.11 | 1.93 ± 0.05
IASEVLIKQVPRLLGPQ [RPL1A] | 2.28 ± 0.13 | 1.87 ± 0.14 | 2.27 ± 0.15 | 1.67 ± 0.068
CSFAVTKSSLNDLDYDL [YML103C/NUP188] | 3.04 ± 0.1 | 3.13 ± 0.091 | 3.01 ± 0.078 | 3.1 ± 0.055
TISSLFVQLCEMGYLIQ [RPC82] | 1.85 ± 0.061 | 1.69 ± 0.078 | 1.61 ± 0.16 | 2.39 ± 0.081
PLDRLENVLAIGIAGAH [SKI6] | 1.26 ± 0.085 | 1.78 ± 0.092 | 1.54 ± 0.18 | 1.85 ± 0.12
QEFFFHAMGGREGLIDT [RPO21] | 2.54 ± 0.081 | 2.17 ± 0.08 | 2.39 ± 0.087 | 2.08 ± 0.063
NSTLKKVESQETLNDTI [YCS4] | 2.12 ± 0.1 | 2.43 ± 0.092 | 2.37 ± 0.13 | 2.1 ± 0.11
VVGVVGYVETPRGLRSL [RPL3] | 2.15 ± 0.072 | 2.68 ± 0.049 | 3.15 ± 0.056 | 2.98 ± 0.095
NNNHKDKKLLRRLLNLY [SWI1] | 2.88 ± 0.054 | 2.93 ± 0.054 | 2.92 ± 0.058 | 3.03 ± 0.054
KLDQDDEIYIPINGNEA [CSI1] | 3.24 ± 0.15 | 3.46 ± 0.091 | 3.19 ± 0.09 | 3.45 ± 0.072
KVLEMKNLKDTASVEKA [YIL149C/MLP2] | 2.95 ± 0.091 | 3.26 ± 0.093 | 3.08 ± 0.098 | 3.21 ± 0.08
HTVTNSPNPTLQPVIPG [SNF5] | 2.55 ± 0.052 | 2.32 ± 0.049 | 2.53 ± 0.052 | 2.78 ± 0.042
LKLSQAFGSSATDISGE [YJR042W/NUP85] | 2.76 ± 0.065 | 2.05 ± 0.067 | 2.56 ± 0.059 | 2.14 ± 0.048
DLKESMVKGLLKSFTES [ECM29] | 3.34 ± 0.26 | 3 ± 0.19 | 2.8 ± 0.1 | 3.34 ± 0.096
SMINNSNQAVGQTWNFP [SRB8] | 2.8 ± 0.17 | 3.01 ± 0.16 | 3.15 ± 0.13 | 2.74 ± 0.12
QLDGFSSDDRVKVLAAT [RPT5] | 2.88 ± 0.16 | 2.83 ± 0.096 | – | 1.58 ± 0.12
LSFTPTTVIGIRGSDQA [RPN2] | 1.65 ± 0.089 | 1.61 ± 0.073 | 1.78 ± 0.15 | 1.59 ± 0.062
IVNVLSKCLNLISDSNI [SWI3] | 2.05 ± 0.043 | 1.77 ± 0.038 | 1.65 ± 0.073 | 2 ± 0.029
AGVVQDIGSDPTLPRSD [RPB9] | 2.83 ± 0.078 | 3.2 ± 0.093 | 2.9 ± 0.061 | 2.94 ± 0.047
KASTISRGAVSGQKAGL [RPL2A] | 2.46 ± 0.044 | 2.36 ± 0.055 | 2.67 ± 0.055 | 2.87 ± 0.046
EAASSNKSFIVDQGQIY [ITC1] | 2.92 ± 0.1 | 2.95 ± 0.068 | 2.89 ± 0.044 | 2.93 ± 0.05
NSKNDSANVELFKRDCN [YCS4] | 2.75 ± 0.071 | 3.05 ± 0.089 | 3.25 ± 0.12 | 3.17 ± 0.07
LNDEYNYPQLTEDILKE [YCS4] | 2.91 ± 0.15 | 3.12 ± 0.099 | 3 ± 0.071 | 3.49 ± 0.085
LKSSLADVLSILAMTYS [RPN1] | 1.7 ± 0.062 | 2.02 ± 0.12 | 1.89 ± 0.19 | 1.96 ± 0.059
DLEEVKRFQVLYPCYFD [SEC65] | 2.28 ± 0.14 | 2.75 ± 0.088 | 2.42 ± 0.25 | 2.34 ± 0.12

Sequence | protein stability index (doa10∆) | protein stability index (pdr5∆) | protein stability index (san1∆) | protein stability index (ubr1∆)
LIELLEKLDVSRSSVCV [YCG1] | 2.44 ± 0.072 | 2.32 ± 0.058 | 2.05 ± 0.08 | 1.88 ± 0.065
FANNLKSAISNNFRESD [SIR4] | 2.55 ± 0.053 | 2.59 ± 0.048 | 2.56 ± 0.044 | 2.41 ± 0.042
PPGLDALVKPETQFKLS [CDC53] | 2.82 ± 0.058 | 2.84 ± 0.055 | 3.07 ± 0.036 | 2.99 ± 0.046
VSALDKCIKYSEKLITK [ECM29] | 3.18 ± 0.14 | 2.15 ± 0.1 | 1.94 ± 0.12 | 1.92 ± 0.093
TEKEPVPAVVDDPLENM [SNF6] | 2.85 ± 0.073 | 3.12 ± 0.08 | 2.69 ± 0.082 | 2.88 ± 0.068
EVAKKRSRKTVKAQRPI [RPL24A] | 3.12 ± 0.097 | 3.29 ± 0.11 | 3.18 ± 0.15 | 3.17 ± 0.16
VKKVVKEQTEAAKKSEK [RPL34A] | 3.37 ± 0.14 | 3.4 ± 0.1 | 3.19 ± 0.038 | 3.31 ± 0.076
LLKLTKVFIRESLSLKN [YML103C/NUP188] | 1.72 ± 0.1 | 1.89 ± 0.12 | 1.3 ± 0.22 | 1.83 ± 0.17
ATQVKTDNTVDKFDFYK [RPT3] | 3.29 ± 0.12 | 2.98 ± 0.11 | 3.26 ± 0.095 | 3.09 ± 0.099
AKITEIGSTSKRPIESG [YIL149C/MLP2] | 3.23 ± 0.084 | 3.07 ± 0.1 | 3.14 ± 0.11 | 3.31 ± 0.059
SFIFQYYGLVIDLLLLG [PRP8] | 1.48 ± 0.12 | 1.2 ± 0.054 | 1.15 ± 0.16 | 1.24 ± 0.05
DGSKMLKRADYTAVDTA [RPN14] | 3.58 ± 0.12 | 3.32 ± 0.11 | 3.53 ± 0.036 | 3.26 ± 0.079
LCRNPLTSGLLYSYLIK [YJL039C/NUP192] | 2.07 ± 0.064 | 1.84 ± 0.06 | 1.67 ± 0.088 | 1.53 ± 0.036
GTGKPEAIHDMFTYSQE [RPN2] | 2.8 ± 0.16 | – | 3.12 ± 0.071 | 2.72 ± 0.11
RVASDTVHEMEEELKKL [SMC4] | 3.37 ± 0.21 | 3.33 ± 0.18 | 3.29 ± 0.12 | 3.63 ± 0.19
LTVENKLQFETDRLSTT [SMC1] | 3.24 ± 0.077 | 3.05 ± 0.05 | 2.84 ± 0.047 | 2.94 ± 0.044
GRLASTIAKQVLNGQKI [RPL16B] | 3.42 ± 0.28 | 2.69 ± 0.11 | – | 2.58 ± 0.13
SETDKRQFLHELRRPGV [RPO31] | 1.89 ± 0.056 | 1.73 ± 0.059 | 1.57 ± 0.16 | 1.57 ± 0.069
ADVFRRCLVAVIQQDKY [SRP72] | 1.6 ± 0.11 | 2.17 ± 0.066 | 1.86 ± 0.1 | 2.74 ± 0.18
YSSKPYKVDNMTRILPQ [RPN2] | 2.62 ± 0.073 | 2.88 ± 0.072 | 2.62 ± 0.082 | 2.31 ± 0.067
VKKILPLYARYINVNPQ [ECM29] | 2.43 ± 0.056 | 2.15 ± 0.051 | 3.06 ± 0.051 | 2.72 ± 0.04
LLRQKIEQCKHPLHELI [ISW2] | 1.37 ± 0.088 | 1.49 ± 0.081 | 1.45 ± 0.22 | 1.48 ± 0.12
AEDVALNEQVKKFFLNN [NAS6] | 2.12 ± 0.058 | 2.18 ± 0.069 | 2.11 ± 0.067 | 2.04 ± 0.068
ELLDFLTSNLSNYSRTM [YJL039C/NUP192] | 2.35 ± 0.076 | 2.54 ± 0.079 | 2.82 ± 0.054 | 2.59 ± 0.085
KSDEGGSYLCTSSTPSP [YOR098C/NUP1] | 3.16 ± 0.065 | 3.09 ± 0.079 | 2.7 ± 0.067 | 3.07 ± 0.06
